What is called Kd is the concentration at which binding is half-saturated. High values mean a looser complex, low ones a tighter complex.

Assay [1] addresses T1, hIFNAR1-extracellular domain (ECD) (human, UniProt P17181 28-424).
T1 construct: interferon alpha and beta receptor subunit 1 (IFNAR1), human, extracellular domain, amino acids 28-424 of hIFNAR1 (GenBank CAA42992.1); The cloning paragraph says N-terminal 6xHis tag (modified pFastBac-1); the SPR paragraph says capture by C-terminal His-tags; The reverse primer encodes ...PGNTSK-stop; also called hIFNAR1-ECD; WT IFNAR1-ECD; not shown: 6xHis, N-terminal, kept
T1 sequence (looked up): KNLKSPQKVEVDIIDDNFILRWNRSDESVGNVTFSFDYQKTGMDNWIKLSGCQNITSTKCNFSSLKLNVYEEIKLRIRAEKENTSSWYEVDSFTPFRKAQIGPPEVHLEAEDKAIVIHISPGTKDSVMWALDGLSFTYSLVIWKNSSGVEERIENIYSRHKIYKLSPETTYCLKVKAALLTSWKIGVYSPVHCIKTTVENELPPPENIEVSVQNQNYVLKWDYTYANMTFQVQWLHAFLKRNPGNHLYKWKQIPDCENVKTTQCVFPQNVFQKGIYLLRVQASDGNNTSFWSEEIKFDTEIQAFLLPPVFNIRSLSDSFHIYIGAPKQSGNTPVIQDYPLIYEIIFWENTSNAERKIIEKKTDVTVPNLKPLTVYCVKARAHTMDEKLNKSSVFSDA
The assay can be described thus: SPR; ProteOn XPR36, HTG chip; His-tagged hIFNAR1-ECD or hIFNAR1-ECD-Del (25 µg/ml in TBS) immobilised on the nickel activated chip; ReBif (hIFN-β) in TBS as analyte at various concentrations; TBS running buffer; Langmuir binding model; in the absence of IFNAR2. The settings on record: both partners purified. For orientation: Surface plasmon resonance follows binding to a sensor surface in real time, without labels.

The target of assay [2] is T2, hIFNAR1-ECD-Del (extracellular domain of human IFNAR1 with the Pro335 deletion) (human, UniProt P17181 28-424, delete P335).
T2 construct: Naturally occurring variant, made by site-directed mutagenesis of hIFNAR1-ECD; N-terminal 6xHis by the cloning paragraph, C-terminal His-tag by the SPR paragraph; also called IFNAR1Del; not shown: 6xHis, N-terminal, kept
T2 sequence (looked up): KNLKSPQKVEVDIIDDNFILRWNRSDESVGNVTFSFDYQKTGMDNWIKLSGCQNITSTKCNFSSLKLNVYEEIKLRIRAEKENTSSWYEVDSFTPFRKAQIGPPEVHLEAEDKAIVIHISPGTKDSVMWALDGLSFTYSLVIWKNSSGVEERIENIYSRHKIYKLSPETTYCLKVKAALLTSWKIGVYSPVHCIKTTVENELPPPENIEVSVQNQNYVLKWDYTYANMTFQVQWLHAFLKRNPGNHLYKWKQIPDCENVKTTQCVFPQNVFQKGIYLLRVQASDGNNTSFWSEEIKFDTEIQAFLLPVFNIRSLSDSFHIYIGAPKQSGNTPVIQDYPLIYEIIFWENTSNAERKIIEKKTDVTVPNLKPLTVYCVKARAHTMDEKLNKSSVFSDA
The description is as above. The settings on record: both partners purified.

B1: human IFN-β (ReBif) (ligand, UniProt P01574 22-187, looked up)
chain: MSYNLLGFLQRSSNFQCQKLLWQLNGRLEYCLKDRMNFDIPEEIKQLQQFQKEDAALTIYEMLQNIFAIFRQDSSSTGWNETIVENLLANVYHQINHLKTVLEEKLEKEDFTRGKLMSSLHLKRYYGRILHYLKAKEYSHCAWTIVRVEILRNFYFINRLTGYLRN
notes: interferon beta, human; the drug product ReBif; also called hIFN-β; source: ReBif (hIFN-β), dialyzed into TBS
As to B1, the equilibrium dissociation constant (Kd) in assay [1] was 15.8 nM; in assay [2] it was 28.1 nM.

Source of the values: article PMC5758831, “A proline deletion in IFNAR1 impairs IFN-signaling and underlies increased resistance to tuberculosis in humans” (Nature Communications, 2018).
